The text below walks through data of patent publication US20050163796A1.

Experiment [1] deals with HLA-B*0702 on HLA-B*0702 transfected TAP- T2 cells (human).
For experiment [2] the target is unchanged. Nature of the experiment: HLA-B*0702 stabilisation on T2-B*0702 cells, FACS with ME.1 mAb; concentration to reach 20% of maximal fluorescence relative to R10V. The note with it: scale: ratio of concentrations, tested peptide / R10V reference.
[3] abbreviates: scale: ratio of concentrations, tested peptide / R10V reference.

Read-outs that look alike come from different tables or passages of the source.

In the case of QPRSDTHVF (modifications not checked) [Q9VF], the RA (relative affinity) in experiment [1] (setting [3]) stood at 1.56.
As to TPKKIKPPL (modifications not checked) [T9PL], the RA (relative affinity) in experiment [2] came to 1.29.
For the molecule GPHMPVYPQT (modifications not checked) [G10QT], in experiment [1] (setting [3]), the RA (relative affinity) amounted to 22.
On to MPVYPQTPT (modifications not checked) [M9PT], for which, in experiment [1] (setting [3]), the RA (relative affinity) came to 0.94.
Still for that read-out and setting: the value for AAISPVLRL (modifications not checked) [A9RL] was 15.
For SPHPRISSEV (modifications not checked) [S10EV], the RA (relative affinity) in experiment [2] worked out at 1.11.
For SPVLRLRPPV (modifications not checked) [S10PV], the RA (relative affinity) in experiment [1] (setting [3]) is 0.85.
Turning to LPPLDRLTL (modifications not checked) [L9TL], the RA (relative affinity) in experiment [2] amounted to 3.51.
Same read-out and setting: the value for HPRISSEVHI (modifications not checked) [H10HI] was 3.7; that for QPIQIAIAAL (modifications not checked) [Q10AL] was 6.5.
Still for that read-out and setting: next, PPQGSQTHQV (modifications not checked) [P10QV]: 8.97.
Same read-out and setting: the value for RPVVSTQLLL (modifications not checked) [R10LL] was 2.25.
On to YPLASLRSLF (modifications not checked) [Y10LF], for which the RA (relative affinity) in experiment [1] stood at 3.25.
For IPLGDARLVI (modifications not checked) [I10VI], in experiment [2], the RA (relative affinity) was found to be 2.33.
Turning to KPPLPSVTKL (modifications not checked) [K10KL], in experiment [2], the RA (relative affinity) worked out at 3.55.
APTKAKRRVV (modifications not checked) [A10VV]: in experiment [2], the RA (relative affinity) stood at 1.14.
As to QPPLYFVHQM (modifications not checked) [Q10QM], the RA (relative affinity) in experiment [1] (setting [3]) came out at 49.
With LPLPPLDRL (modifications not checked) [L9RL], the RA (relative affinity) in experiment [2] was determined as 6.13.
